# Patent US20210253725A1 (BIONTECH, published 2021)
# T1: CD27 protein (His-tagged, Sino Biological Inc. 10039-H08B1) (human, UniProt P26842 20-192)
# T1 construct: bought; coated onto ELISA plates; also called human CD27; recombinant protein; not shown: His tag
# T1 sequence (looked up): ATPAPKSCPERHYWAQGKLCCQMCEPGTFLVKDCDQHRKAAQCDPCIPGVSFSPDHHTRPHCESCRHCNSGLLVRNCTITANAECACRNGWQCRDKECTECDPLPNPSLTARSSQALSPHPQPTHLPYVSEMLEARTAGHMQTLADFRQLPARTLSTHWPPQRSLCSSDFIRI
# T2: CD27 expressed on the cell surface (HT1080_CD27 cells) (human, UniProt P26842 20-260)
# T2 construct: whole, on cells; also called K562_CD27
# T2 sequence (looked up): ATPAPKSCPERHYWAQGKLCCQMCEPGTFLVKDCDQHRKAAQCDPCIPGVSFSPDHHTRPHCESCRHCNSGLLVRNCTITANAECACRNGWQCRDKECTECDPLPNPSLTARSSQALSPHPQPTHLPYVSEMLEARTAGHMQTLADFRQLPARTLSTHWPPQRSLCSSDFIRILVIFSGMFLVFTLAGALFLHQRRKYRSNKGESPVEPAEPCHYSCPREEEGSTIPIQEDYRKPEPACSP
# Legend:
# [1] = biological target: T1, CD27 protein (His-tagged, Sino …); assay: ELISA on coated His-tagged CD27
# [2] = biological target: T2, CD27 expressed on the cell surface …; assay: cellular binding assay, HT1080_CD27 cells
# [3] = biological target: T2, CD27 expressed on the cell surface …; assay: cell-based or functional assay
# Further: test concentration or dose not given here.
Binder,ELISA [abs. corr.] [1] [abs. corr.],Cellular binding assay [RFU] [2] [RFU],"IL-8, cross-linked by F(ab')2 fragment [abs. corr.] [3] [abs. corr.]",IL-8 [abs. corr.] [3] [abs. corr.]
"P018.S.07.A.A05 (antibody, V domains shown, V regions on human Ig constant parts; also called AB27_114) VH: QEHLEESGGDLVKPGASLTLTCKASGFDLSINVMCWVRQAPGKGPEWIVCIDNGDGSTYYASWVNGRFTISKTSSTTVTLQMTSLTAADTATYFCARPGTFTYGGNTYPGSFVLWGPGTLVTVSS VL: AFELTQTPSSVEAAVGGTVTINCQASQSISNALAWYQQKPGQPPKLLIYTASNLASGVPSRFKGSGSGTQFTLTISDLESADAATYYCQNYYVNIIGIGFGGGTEVVVK",3.44,379,1.03,0.408
"P018.S.01.A.E06 (antibody, V domains shown, V regions on human Ig constant parts; also called AB27_18) VH: QSLEESGGDLVKPGASLTLTCTASGIDFSSSYYMCWVRQAPGKGLEWIGCIATGGGNTYYATWAKGRFTFSETSSTTVTLQMTSLTVADTATYFCARTYPSMWYFNLWGPGTLVTVSS VL: DVVMTQTPASVSEPVGGTVTIKCQASQSIGFNLAWYQQKPGQPPNLLIYGVSTLTSGVSSRFKGSGSGTQFTLTISDLESADAATYYCQSFYAGSSAFGGGTEVVVK",3.45,291,1.4,0.448
"P018.S.07.A.B05 (antibody, V domains shown, V regions on human Ig constant parts; also called AB27_117) VH: QSLEESGGDLVKPGASLTLTCTASEFSFSNNYYICWVRQAPGKGLEWIACIYVHSGTTDYATWAKGRFTISRTSSTTVTLQMTSLTVADTATYFCARGRSGYYADAFDTWGPGTLVTVSS VL: ALDMTQTPSPVSAAVGGTVTINCQASQSVYNNNNLAWYQQKPGQPPKLLIYLASNLASGVPSRFKGSGSGTQFTLTISEIQSDDAATYYCQGTDSSSGWEHAFGGGTEVVVK",3.42,295,1.41,0.203
"P018.S.08.A.D01 (antibody, V domains shown, V regions on human Ig constant parts; also called AB27_137) VH: QSVEESGGRLVMPGTPLTLTCTVSGFSLSTYVMGWVRQAPGKGLECIGVIYGGGTIWYASWAKGRFTISKTSTTMDLQITSPTTEDTATYFCARDGSSSGDPGFNLWGQGTLVTVSS VL: DIVMTQTPASVSAAVGGTVTINCQASQSISNWVAWYQQKPGQPPKRLIYKASTLASGVPSRFKGSGSGTEFTLTISDLESADAATYYCQSTGSTAYGRAFGGGTEVVVR",3.42,394,1.12,-0.001
"P018.S.03.A.A02 (antibody, V domains shown, V regions on human Ig constant parts; also called AB27_41) VH: QSVEESGGRLVTPGTPLTLTCTVSGFSLSSYDMTWVRQAPGEGLEWIGYINTDTTTYYASWAKGRFTISRTSTTVDLEITSPTTEDTATYFCARGNDPIYIDLWGQGTLVTVSS VL: AAVLTQTPSPVSAAVGGTVSISCQSSKSVINNNWLGWYQQKPGQPPKLLISYASTLASGVPSRFSGSGSGTQFTLTISDVQSDDAATYYCAGAYSPDSENAFGGGTEVVLK",3.44,373,2.2,0.651
"P018.S.01.A.F02 (antibody, V domains shown, V regions on human Ig constant parts; also called AB27_19) VH: QQQLVESGGGLVRPGASLTLTCKASGFSFSSGYYVCWVRQAPGKGLEWIACIFAGSGGGAGYATWAKGRFTISKTSSTTVTLQMTSLTAADTATYFCARPLSGYAYGMDLWGPGTLVTVSL VL: DVVMTQTPASVSEPVEGTVTIKCQASQTISNYLAWYQQKPGQPPKLLIYGASTLESGVSSRFKGSGSGTQFTLTIYDLESADAATYYCQCTYDGSSDVGGAFGGGTEVVVK",3.42,326,2.05,0.495
"P018.S.07.A.C04 (antibody, V domains shown, V regions on human Ig constant parts; also called AB27_120) VH: QEQLVESGGGLVQPEGSLTLTCTASGFSFSSRFWICWVRQAPGKGLEWIACIYGGSTSATYDASWAKGRFTISKTSSTTVTLQMTSLTAADTATYFCTRLPTYDAYVFNLWGPGTLVTVSS VL: AIVMTQTPSSKSVPVGATATINCQASESVFSNNYLSWYQQKPGRSPKLLIYEASKLASGVPSRFSGSGSGTQFTLTISDVVSDDAATYYCGGYKSNNVDGYAFGGGTEVVVK",3.45,300,1.65,0.302
"P018.S.03.A.G02 (antibody, V domains shown, V regions on human Ig constant parts; also called AB27_56) VH: QSLEESGGDLVKPGASLTLTCTASGFSFSSGYDMCWVRQAPGKGLEWIACIYAGSNNNTYYASWAKGRFTISKTSSTTVTLQVASLTAADTATYFCARAAGGYADYAYVMGDYFNFWGPGTLVTVSS VL: AYDMTQTPASVEVAVGGTVTIKCQASEDIYSILAWYQQKPGQRPKGLIYSASTLDSGVPLRFSGSGSGTEFTLTISGVQSDDAATYYCQQGYSSSNVDNVFGGGTEVVVK",3.44,275,1.28,0.412
"P018.S.10.A.G05 (antibody, V domains shown, V regions on human Ig constant parts; also called AB27_183) VH: QSVEESGGRLVTPGTPLTLTCTVSGFSLNNAHMCWVRQAPGKGLEWIGIIGASGSTYYASWAKGRFTISKTSTTVDLKMTSLTTEDTATYFCGRTDVGYTTANLWGQGTLVTVSS VL: DVVMTQTPASVSAAVGGTVTIKCQASQTISSYLSWYQQKPGQPPKRLIYSASTLASGVSSRFKGSGSGTQFTLTISDLESADAATYYCQAYDTTSGTDLWAFGGGTEVVVK",3.42,408,1.25,0.137
"P018.S.03.A.F02 (antibody, V domains shown, V regions on human Ig constant parts; also called AB27_53) VH: QSVEESGGRLVTPGTPLTLTCTVSGFSLSSNAMTWVRQAPGKGLEWIGFINTGGSTYYASWAKGRFTISKTSTTVDLKITSPTTEDTATYFCARDVGDSRGYYWGLWGQGTLVTVSS VL: AYDMTQTPASVPAAVGGTVTIKCQASEDIYSLLAWYQQKPGQPPKLLIYDASDLASGVPSRFRGSGSGTDYTLTISGVESADAATYYCQQGYTTYTTVDNIFGGGTEVVVK",3.46,276,1.22,0.736
"P018.S.06.A.A03 (antibody, V domains shown, V regions on human Ig constant parts; also called AB27_96) VH: QSVEESGGRLVTPGTPLTLTCTVSGFSLSSNAMTWVRQAPGKGLEWIGFINTGSSTYYASWAKGRFTISKTSTTVDLKITSPTTEDTATYFCARDADDSRGYYWGLWGQGTLVTVSS VL: AYDMTQTPASVPAAVGGTVTIKCQASEDIYSLLAWYQQKPGQPPKLLIYDASDLASGVPSRFRGSGSGTDYTLTISGVESADAATYYCQQGYTTYTTVDNIFGGGTEVVVK",3.41,387,1.86,0.576
"P018.S.10.A.H01 (antibody, V domains shown, V regions on human Ig constant parts; also called AB27_184) VH: QEQLEESGGDLVKPGASLTLTCTASGFSFSSDYDMCWVSQAPGKGLEWIACIIGGSSDSTWYASWAKGRFTISKTSSTTVTLQVTGLTAADTATYFCARNVGFSYYDLWGPGTLVTVSS VL: AQVLTQTPSPVSAAVGGTVTINCQASQSLYNNKNLAWYQQKPGQPPKLLIYYASTLASGVSSRFKGSGSGTQFTLTISGVQSDDAATYYCQGEFSCSSGDCFAFGGGTEVVVK",3.42,443,2.29,0.412
"P018.S.04.A.D02 (antibody, V domains shown, V regions on human Ig constant parts; also called AB27_71) VH: QSLEESGGRLVTPGTPLTLTCTASGFSLSTYAMGWVRQAPGEGLEWIGNINTDSGDTWYARWAKGRFTISTTSSTTVDLKITSPTIEDTATYFCARNPGDDVNLWGQGTLVTVSS VL: AQVLTQTPSPVSAAVGDTVTINCQASQSVYNNNDLAWFQQKPGQPPKLLIYRTSILASGVPSRFKGSGSGTQFTLTISDLESDDAATYYCQGYYSGVIYVFGGGTEVVVK",3.42,335,1.35,0.294
"P018.S.09.A.C06 (antibody, V domains shown, V regions on human Ig constant parts; also called AB27_149) VH: QSVEESGGRLVTPGTPLTLTCTVSGFSLSTYAMGWVRQAPGKGLEWIGIIYTGGSTYYASWAEGRFTISKTSTTVDLKITSPTPEDTATYFCTRDLGATYDYFDLWGQGTLVTVSS VL: AYDMTQTPASVEVAVGGTVTIKCQASQSISTALAWYQQKPGQRPKLLIYDTSDLASGVPSRFSGSGSGTEFTLTISGVESADAATYYCQQGYRHTNVDNPFGGGTGVVVK",3.45,219,2.3,1.94
